Assays:
[1] = molecular target: human IL 12 protein (Recombinant His, C-terminus) (aa23-328) (LS-G134297-50: LSBio, Inc.) (human) (UniProt P29460); experiment: SPR (Biacore 8K); affinity ratio with the original antibody as 1.0
[2] = molecular target: human IL 12 protein (Recombinant His, C-terminus) (aa23-328) (LS-G134297-50: LSBio, Inc.) (human) (UniProt P29460); experiment: SPR (Biacore 8K), antigen immobilized on CM4 chip, antibody as analyte

Sequence of human IL 12 protein (Recombinant His, C-terminus) (aa23-328) (LS-G134297-50: LSBio, Inc.) (human) (P29460 23-328, form in doubt): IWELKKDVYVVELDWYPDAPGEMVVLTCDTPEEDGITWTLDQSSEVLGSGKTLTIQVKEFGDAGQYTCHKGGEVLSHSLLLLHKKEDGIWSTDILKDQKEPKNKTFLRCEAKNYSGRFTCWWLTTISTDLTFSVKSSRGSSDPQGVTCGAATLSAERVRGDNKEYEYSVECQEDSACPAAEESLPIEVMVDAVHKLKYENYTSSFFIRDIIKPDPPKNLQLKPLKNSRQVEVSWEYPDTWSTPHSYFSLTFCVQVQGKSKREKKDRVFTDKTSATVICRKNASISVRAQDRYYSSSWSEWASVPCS

KD ratio [1] | Kd [2] [pM] | Binder
1 | 10300 | mouse anti-human IL-12 antibody (clone 22-4), original (unmodified) (Fab, V domains shown, not shown: a dimerising Fc or GST) VH: EVQLQESGPSLVKPSQTLSLTCSVTGDSITSGYWNWIRKFPGNKLEYMGYISYSGSTYYNPSLKSRISITRDTSKNQNYLQLNSVTTEDTATYYCARRDTTVVVPYYFDYWGQGTTLTVSS VL: DIVMTQSHKFMSTSVGDRVSITCKASQDVGTAVAWYQQKPGQSPKLLIYWASTRHTGVPGRFTGSGSGTDFTLTINNVQSEDLADYFCQQYSSYPLTFGAGTKLELKR
42.2 | 245 | R4 variant of anti-IL-12 antibody (clone 22-4) (Fab, V domains shown, not shown: a dimerising Fc or GST) VH: EVQLQESGPSLVKPSQTLSLTCSVTGDSITSGYWNWIRKFPGNKLEYMGYISYSGSTYYNPSLKSRISITRDTSKNQNYLQLNSVTTEDTATYYCARRDTTVVVPYYFDYWGQGTTLTVSS VL: DIVMTQSHKFMSTSVGDRVSITCKASQDVGTAVAWYQQKPGQSPKLLIYWASTRHTGVPGRFRGRGRGTRFTLTINNVQSEDLADYFCQQYSSYPLTFGAGTKLELKR
20.8 | 497 | R3 variant of anti-IL-12 antibody (clone 22-4) (Fab, V domains shown, not shown: a dimerising Fc or GST) VH: EVQLQESGPSLVKPSQTLSLTCSVTGDSITSGYWNWIRKFPGNKLEYMGYISYSGSTYYNPSLKSRISITRDTSKNQNYLQLNSVTTEDTATYYCARRDTTVVVPYYFDYWGQGTTLTVSS VL: DIVMTQSHKFMSTSVGDRVSITCKASQDVGTAVAWYQQKPGQSPKLLIYWASTRHTGVPGRFRGRGRGTDFTLTINNVQSEDLADYFCQQYSSYPLTFGAGTKLELKR
